According to patent publication US7718626B2, “ErbB3 binding protein compositions and methods of use” (University of Maryland, Baltimore, priority 2005, dated 2010):

Key:
LNCaP cells [1] = assay: Soft agar colony growth assay; type: cell-based, human; conditions: highest cell concentration tested, ten days
Protocol: (§1) Cell Growth Assays: To measure growth in complete media, cells (2×10^4) were seeded in triplicate in individual wells of 12-well tissue culture plates in RPMI-1640 with 10% FBS and cultured for the indicated number of days. Cells were trypsinized, stained with Trypan Blue (0.4%), and counted in a hemacytometer. For soft agar growth assays, increasing concentrations of cells (as indicated) were plated in 35 mm petri dishes in complete media and 0.3% Difco Bacto Agar over an 0.5% agar layer. Colonies were counted after 10 days of incubation. For studies assessing the effect of dihydrotestosterone (DHT) on cell growth, cells (2×10^4) were plated in 12-well plates in complete media. After a 24-hour attachment period, the medium was replaced with steroid-free medium [phenol red-free RPMI 1640 and 5% charcoal-stripped FBS (Sigma)] for 48 hours. The final concentration of testosterone in the steroid-reduced media was less than 5 pM. After 48 hours of steroid depletion, cells were re-fed with fresh steroid-reduced medium with or without the indicated concentrations of DHT and/or bicalutamide (10 μM), and total cell numbers were assessed 7 days later.
The soft agar growth of ebp1 transfectants was also examined. LNCaP vector controls and ebp1 transfectants were seeded at concentrations between 1×10^4 and 1×10^5 cells per dish and colony growth in soft agar assessed ten days later. […]

LNCaP cells [2] = assay: Growth in steroid-reduced medium with DHT and/or bicalutamide; type: cell-based, human; conditions: ebp1 transfectants (vector controls approximately 70%)
Protocol: as §1, with “For soft agar growth assays, increasing concentrations of cells (as indicated) were plated in 35 mm petri dishes in complete media and 0.3% Difco Bacto Agar over an 0.5% agar layer.” left out

LNCaP cells [3] = assay: Cell growth in complete media; type: cell-based, human
Protocol: as §1
Growth Characteristics of LNCaP ebp1 transfectants: The growth rate of the ebp1-transfected cells in complete media was compared to that of cells transfected with the empty vector. […]

LNCaP xenografts = assay: LNCaP xenograft tumorigenicity in SCID mice; type: in vivo
Protocol: In Vivo Studies in SCID Mice: Male SCID mice, 4-6 weeks of age, were purchased from the National Cancer Institute (Frederick, Md.). Animals were housed in a pathogen-free environment under controlled conditions of light and humidity and received food and water ad libitum. LNCaP cells were grown in complete medium and 800 μg/ml of G418 until 80% confluent. Cells were scraped into phosphate-buffered saline (PBS), collected by centrifugation, and suspended in Matrigel (10 mg/ml) (Collaborative Research, Waltham, Mass.) at 1×10^7 cells/ml. Each mouse received s.c. injections at one site on each flank with 100 μl of cell suspension. Tumors were measured three times a week with calipers, and tumor volumes were calculated by the formula 0.5236×r1^2×r2 (r1<r2). The animal protocols were approved by the Institutional Animal Care and Use Committee at the University of Maryland.
After sacrifice, tumors were excised and fixed in 10% buffered neutral formalin. Sections of formalin-fixed, paraffin-embedded tissues were cut to 5 μm. Slides were stained with an Ebp1 antibody (Upstate) diluted 1:50 using the standard avidin-biotin method (Vector Labs, Burlinghame, Calif.). Peroxidase activity was localized by the diaminobenzidine tetrachloride peroxidase reaction with Harris hematoxylin as a counterstain.
Ebp1 expression suppresses growth of prostate cancer xenografts: The effect of ectopic expression of ebp1 on the tumorigenicity of LNCaP cells was examined. Ebp1- and vector-transfected cells were injected subcutaneously into SCID mice, and tumor growth was monitored. Tumor growth was first noted in both groups at day 20. […] At the end of the study, tumors had developed at more than 85% of the sites injected with the vector control cells, while less than 40% of sites inoculated with ebp1 transfectants developed tumors. This difference was significant at p=0.04 by Fisher's exact test, two-sided. […] Average tumor volumes observed at the end of the study were 268±70 mm^3 as compared with 1214±168 mm^3 for the vector controls (p=0.0003). In addition, the growth rate was also slower for ebp1 transfectants at all time points measured (p=0.0001). […] Thus, cells that grew to form tumors had lost overexpression of the transgene.

[4] = system: AR and POV-1 protein in LNCaP cells; assay: Western blot analysis of LNCaP ebp1 transfectants; type: cell-based, human
Protocol: Western Blot Analysis: Briefly, total cell extracts were prepared by direct lysis of cells with buffer containing 50 mM Tris-HCl (pH 7.4), 1 mM EDTA, 250 mM NaCl, 1% Triton X-100, 0.5 mM dithiothreitol (DTT) and 1 mM phenylmethylsulfonyl (PMSF). Protein concentrations were measured using a detergent compatible kit (BioRad, Hercules, Calif.). Proteins were resolved by SDS-PAGE and analyzed by Western blotting as described (Xia et al., 2001, Analysis of the Expression Pattern of Ebp1, an ErbB-3-Binding Protein, Biochem. Biophys. Res. Commun., 289:240-244). The AR antibody was from Santa Cruz Biotechnology (Santa Cruz, Calif.), the Ebp1 antibody from Upstate (Lake Placid, N.Y.), the polyclonal antibody to actin from Sigma (St. Louis, Mo.), and the POV-1 antibody was a gift of Dr. Rodrigo Chugai, National Cancer Institute. The results of the microarray analysis were validated using real-time quantitative reverse-transcription PCR, Western blot, and ELISA methods. […] The expression of POV-1 mRNA and protein were each decreased about two-fold. PSA secretion in the conditioned media of ebp1 and vector control cells was assessed by ELISA. […] Finally, […]-2 mRNA expression was decreased approximately 40%.

B1: Ebp1: ErbB3 binding protein (SEQ ID NO: 2), tested by stable ectopic expression (ebp1 transfection) in LNCaP cells (protein)
chain: MSGEDEQQEQTIAEDLVVTKYKMGGDIANRVLRSLVEASSSGVSVLSLCEKGDAMIMEETGKIFKKEKEMKKGIAFPTSISVNNCVCHFSPLKSDQDYILKEGDLVKIDLGVHVDGFIANVAHTFVVDVAQGTQVTGRKADVIKAAHLCAEAALRLVKPGNQNTQVTEAWNKVAHSFNCTPIEGMLSHQLKQHVIDGEKTIIQNPTDQQKKDHEKAEFEVHEVYAVDVLVSSGEGKAKDAGQRTTIYKRDPSKQYGLKMKTSRAFFSEVERRFDAMPFTLRAFEDEKKARMGVVECAKHELLQPFNVLYEKEGEFVAQFKFTVLLMPNGPMRITSGPFEPDLYKSEMEVQDAELKALLQSSASRKTQKKKKKKASKTAENPTSGETLEENEAGD
modifications: Homo Sapien
LNCaP cells [1]
  decrease of colony growth in soft agar: approximately 90%
LNCaP cells [2]
  growth inhibition by the withdrawal of androgens: 60%
LNCaP cells [3]; ebp1 transfectants vs vector control, p<0.05
  growth rate in complete media: significantly decreased
LNCaP cells [3]; ebp1 transfectants, complete media (vector control 48 hours)
  doubling time: 72 h
LNCaP xenografts; all time points measured, vs vector controls, p=0.0001
  tumor growth rate: slower
LNCaP xenografts; day 20, s.c. in SCID mice (vector controls 35%)
  inoculation sites with tumors: 10%
LNCaP xenografts; end of the study (vector control more than 85%), p=0.04
  inoculation sites that developed tumors: less than 40%
LNCaP xenografts; end of the study (vector controls 1214±168 mm^3), p=0.0003
  average tumor volume: 268±70 mm^3
[4]; Western blot, LNCaP ebp1 transfectants
  AR protein decrease: more than five-fold
[4]; ebp1 transfectants
  POV-1 protein decrease: about two-fold
